Measurements taken from patent publication US20100204147A1 (REGENERX BIOPHARMACEUTICALS, published 2010).

Tests used:
Experiment in all cases: ELISA, immobilized fragment, without factor XIII or with non-activated factor XIII
[1] = target: T1, Recombinant truncated αC-fragment, NH2-terminal half (residues Aα221-391) (human, UniProt P02671 240-410)
T1 construct: probably the mature Aα chain
T1 sequence (looked up): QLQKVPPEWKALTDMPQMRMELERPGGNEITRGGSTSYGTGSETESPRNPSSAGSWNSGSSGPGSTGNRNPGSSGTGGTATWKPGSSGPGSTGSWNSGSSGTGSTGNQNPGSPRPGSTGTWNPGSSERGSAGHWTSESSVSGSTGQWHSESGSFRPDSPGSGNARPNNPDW
Experimental: (§1) The interaction between thymosin β4 and fibrin(ogen) and its fragments in the presence or absence of FXIIIa was studies by ELISA using plastic microliter plates. Wells of microliter plates were coated overnight at −4° C. with fibrinogen and fibrin at 10 μg/mL or with the recombinant fragments of 20 μg/ml, all in 0.1 M NaHCO₃ buffer, pH 8.3. Fibrin was made by addition to the wells of a mixture containing 10 μg/mL fibrinogen 1 NIH u/ml thrombin and 400 u/ml aprotinin, followed by overnight incubation at +4° C. The wells were then blocked by incubation with Super Blocker (Pierce) at 37° C. for 1 h. Following washing with TBS containing 0.05% Tween-20 (TBS-Tween), the indicated concentrations of thymosin β4, FXIII, FXIIIa(Thr) and FXIIIa(Ca) were added to the wells and incubated for 2-2.5 h at 37° C. Bound (incorporated) thymosin β4 was detected by the reaction with rabbit anti-thymosin β4 serum and peroxidase-conjugated anti-rabbit IgG. A TMB Microwell Peroxidase Substrase was added to the wells, and the incorporated thymosin β4 was measured spectrophotometrically at 450 nm.
(§2) The above observations were confirmed by ELISA. […] It should be noted that the incorporation of the γ-module was almost twice lower than that of the αC-domain variants at all concentration studied. When thymosin β4 was incubated with the same immobilized species in the presence of non-activated factor XIII or without it, the incorporation was very low in all cases.

[2] = target: T2, Recombinant αC-fragment corresponding to the human fibrinogen αC-domain (residues Aα221-610) (human, UniProt P02671 240-629)
T2 construct: By fibrinogen convention they are probably mature Aα chain numbering, without the signal peptide
T2 sequence (looked up): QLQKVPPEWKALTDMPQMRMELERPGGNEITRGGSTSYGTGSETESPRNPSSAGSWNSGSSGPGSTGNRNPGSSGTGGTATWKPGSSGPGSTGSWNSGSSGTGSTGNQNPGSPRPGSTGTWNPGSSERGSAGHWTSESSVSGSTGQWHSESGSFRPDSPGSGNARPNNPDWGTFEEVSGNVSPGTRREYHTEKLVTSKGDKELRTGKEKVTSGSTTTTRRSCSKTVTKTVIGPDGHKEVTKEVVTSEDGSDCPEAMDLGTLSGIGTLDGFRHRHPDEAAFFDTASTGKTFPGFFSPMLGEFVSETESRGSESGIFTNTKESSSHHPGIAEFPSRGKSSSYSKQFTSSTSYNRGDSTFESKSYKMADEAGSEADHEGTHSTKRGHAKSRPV
Experimental: as §1, §2

[3] = target: T3, Recombinant truncated αC-fragment, COOH-terminal half (residues Aα392-610) (human, UniProt P02671 411-629)
T3 construct: probably the mature Aα chain; also called Aα392-610 sub-fragment; Aα392-610 fragment
T3 sequence (looked up): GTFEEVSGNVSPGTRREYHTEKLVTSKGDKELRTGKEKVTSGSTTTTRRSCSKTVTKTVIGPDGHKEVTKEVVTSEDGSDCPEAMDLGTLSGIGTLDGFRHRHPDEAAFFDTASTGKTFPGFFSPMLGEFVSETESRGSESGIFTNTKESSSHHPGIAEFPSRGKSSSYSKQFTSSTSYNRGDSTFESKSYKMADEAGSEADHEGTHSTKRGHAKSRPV
Experimental: as §1, §2

Measured: binding result

SDKPDMAEIEKFDKSKLKKTETQEKNPLPSKETIEQEKQAGES (peptide, UniProt P62328 2-44, looked up, not fully specified, mature; also called Tβ4) [Synthetic thymosin β4]
no binding: all assays above
